# Assay results reported in patent US20230310629A1 (Merck KGaA, published 2023).
# Where no end group is shown, it is not given here.
# T1: biotinylated synthetic VNTR peptide of MUC1 (APDTRPAPGSTAPPAC-biotin) (human)
# T1 construct: also called human MUC1-VNTR peptide
# T1 peptide: APDTRPAPGSTAPPAC-biotin
# T2: fragment of human MUC1 immunodominant core peptide (APDTRPAPGSTAPPA) (human)
# T2 construct: also called MUC1 peptide; human MUC1 truncated peptide
# T2 peptide: APDTRPAPGSTAPPA
# B1: 1993-H02 with an HT186-D11 light chain (anti-MUC1 antibody H02) (antibody, V domains shown)
# VH: QMQLVQSEAELKKPGASVKVSCKASGYSFTSHFMHWVRQAPGQGLEWMGWIDPVTGGTKYAQNFQGWVTMTRDTSIRTAYLELSRLRSDDTAMYYCAREARADRGQFDKWGQGTLVTVAS
# VL: QSVLTQPPSVSVAPGKTARITCGGNNIGSKSVHWYQQKPGQAPALVIYYGSNRPSGIPERFSGSNSGNTATLTISRVEAGDEADYYCQVWDSSSDWVFGGGTKLTVL
# notes: One molecule is used here for both experiments
# B2: H02-scFv, the MUC1-binding arm of Molecule 1 (scFv)
# scFv: QMQLVQSEAELKKPGASVKVSCKASGYSFTSHFMHWVRQAPGQGLEWMGWIDPVTGGTKYAQNFQGWVTMTRDTSIRTAYLELSRLRSDDTAMYYCAREARADRGQFDKWGQGTLVTVASGGGGSGGGGSGGGGSQSVLTQPPSVSVAPGKTARITCGGNNIGSKSVHWYQQKPGQAPALVIYYGSNRPSGIPERFSGSNSGNTATLTISRVEAGDEADYYCQVWDSSSDWVFGGGTKLTVL
# Columns and labels:
# [1] = biological target: T1, biotinylated synthetic VNTR peptide of …; assay: Biacore, human MUC1-VNTR; ka1
# [2] = biological target: T1, biotinylated synthetic VNTR peptide of …; assay: Biacore, human MUC1-VNTR; kd1
# [3] = biological target: T1, biotinylated synthetic VNTR peptide of …; assay: Biacore, human MUC1-VNTR peptide
# [4] = biological target: T2, fragment of human MUC1 immunodominant …; assay: co-crystallisation, X-ray structure
binder,measurement,setting,value
B1,kon,[1],126000 M⁻¹ s⁻¹
same,koff,[2],0.0017 s⁻¹
same,Kd,[3],0.901 nM
B2,binding result,[4],binds
